Reference: patent US20200147241A1 (AMICUS THERAPEUTICS, published 2020)
Where a chain is given by its changes, count along the chain named. Names may count otherwise.

B1: Human α-GAL M51C-G360C (enzyme)
chain: LDNGLARTPTMGWLHWERFCCNLDCQEEPDSCISEKLFMEMAELMVSEGWKDAGYEYLCIDDCWMAPQRDSEGRLQADPQRFPHGIRQLANYVHSKGLKLGIYADVGNKTCAGFPGSFGYYDIDAQTFADWGVDLLKFDGCYCDSLENLADGYKHMSLALNRTGRSIVYSCEWPLYMWPFQKPNYTEIRQYCNHWRNFADIDDSWKSIKSILDWTSFNQERIVDVAGPGGWNDPDMLVIGNFGLSWNQQVTQMALWAIMAAPLFMSNDLRHISPQAKALLQDKDVIAINQDPLGKQGYQLRQGDNFEVWERPLSGLAWAVAMINRQEICGPRSYTIAVASLGKGVACNPACFITQLLPVKRKLGFYEWTSRLRSHINPTGTVLLQLENTMQMSLKDLL
notes: It is the full precursor entry; Transiently expressed in 293HEK cells, tested in cell lysate and culture media; also called M51C-G360C α-GAL; modified α-galactosidase A
B2: Human α-GAL D233C-I359C (enzyme)
chain: B1 chain with C20M, D202C, I328C, C329G
notes: It is the full precursor entry; Transiently expressed in 293HEK cells, tested in cell lysate and culture media; also called D233C-I359C α-GAL; modified α-galactosidase A

Molecular target: the molecule itself
Assay: reduced and non-reduced SDS-PAGE and Western blot of 293HEK cell lysate and culture media (homodimer formation)
Source text: The formation of disulfide bonded dimers of modified α-GAL was examined in cell lysate and culture media (FIG. 2A). Clones of each α-GAL construct were transiently expressed in 293HEK cell. Cell lysates and culture media were run on 4-12% gradient SDS-PAGE and transferred to nitrocellulose. α-GAL was detected by Western Blotting with rabbit monoclonal anti- α-GAL 1:2000 (abcam ab168341).
Reduced and non-reduced samples were subjected to electrophoresis and Western blotting.

| Protein | binding result |
| --- | --- |
| B1 | binds |
| B2 | binds |
